Experimental data: article PMC7665024, “Anti-apoptotic BCL-2 regulation by changes in dynamics of its long unstructured loop” (Communications Biology, 2020)
“Also recorded” adds a separate entry of the source.

How the values were obtained:
BAX [1] = experiment: FRAP-GUV pore-forming activity of BAX, 10-kDa F-dextran; assay type: biochemical, mouse; design: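 unitless ratio D/D0 relative to diffusion coefficient after Triton X-100 disruption of GUVs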; conditions: 10 kDa F-dextran
Experimental: (§1) Briefly, GUVs were incubated with the proteins of interest over a period of time (Fig. 2c), followed by photobleaching within individual GUVs. A series of fluorescent images were collected over time after the photobleaching and then analyzed to yield the diffusion coefficients of Fluor molecules (including FITC-labeled 70-kDa, and Alexa-647-labeled 10-kDa probes) using the theoretical approach detailed in the “Methods” section. As Fluor molecules are homogeneously dispersed in the solution (outside and inside of GUVs) before the incubation with BAX and activators, it is reasonable to expect that the larger the induced pore area on the surface of a GUV, the greater the diffusion coefficient. Thus, the diffusion coefficient is directly related to the pore-forming activity of activated BAX. As the pore-forming activity is proportional to the concentration of BAX[18], we fixed the total amount of added BAX in all of the measurements below (see the “Methods” section).
(§2) Full-length BAX and variants were prepared as previously described[18],[22],[35]. Mouse BAX was cloned into pTYB1 vector (New England Biolabs, Inc.), resulting pTYB1-BAX construct. The pTYB1-BAX construct encoding a fusion protein of BAX with chitin-binding peptide was separated by a self-cleavable intein tag to obtain a full-length BAX. Wild-type BAX has two native cysteine residues at 62 and 126. Cysteine-free construct (C62S/C126S) was used to prepare single-cysteine BAX variants for conjugating fluorescence probes (e.g., BAX136C in Fig. 1d). Point mutations of recombinant BAX were generated using a QuikChange mutagenesis kit. Proteins were expressed in E. coli (ER2566) strain (New England Biolabs, Inc.) and purified without detergent. Bacterial cultures were grown at 37 °C in LB medium containing 0.1 g/L ampicillin to reach an OD600 of 1.0. BAX expression was induced by addition of 0.3 mM IPTG at 30 °C for 6−8 h. The cells were harvested by centrifugation and resuspended in ice-cold lysis buffer (20 mM Tris–HCl, pH 7.0, 500 mM NaCl and 1 mM PMSF). The resuspended pellet was sonicated on ice for 30 min, followed by centrifugation at 12,800 × g for 50 min. […] The resins were incubated in a pre-equilibrated buffer (20 mM sodium phosphate, pH 8.0, 100 mM NaCl, 60 mM dithiothreitol (DTT)) for 48 h. Proteins were eluted from column and further purified by a SEC using a HiLoad 16/60 Superdex 75 column (GE Healthcare) pre-equilibrated in PB buffer (20 mM sodium phosphate, pH 7.4, 100 mM NaCl). Purified proteins were confirmed by SDS–PAGE with Coomassie blue staining. Protein concentration was determined using absorption spectroscopy at 280 nm.
(§3) All lipids used were purchased from Avanti Polar Lipids. […] Texas Red 1,2-dihexadecanoyl-sn-glycero-3-phosphoethanolamine (TR-DPPE) (Invitrogen) of 0.05% was added to the lipid mixture for virtualization of GUV[18],[26],[27]. GUVs were prepared with the gel-assisted swelling on a polyvinyl alcohol (PVA) gel[39]. A 5% (w/w) solution of PVA (MW 145,000) was prepared by stirring PVA in ddH2O while heating at 90 °C. PVA solution was spread on a microscope coverslip (18 × 18 mm, Matsunami, Japan) and then dried at 50 °C. Lipid mixture (1 mg/mL) dissolved in chloroform were spread on the dry PVA film and placed under vacuum for 30 min to evaporate the solvent. Lipids were rehydrated for 1 h in PB buffer. The resulting GUVs were transferred to an Eppendorf tube using blunt tips.
(§4) FRAP measurements were performed as described previously. […] All reactions were at room temperature and the final volume was 200 μL.

BAX [2] = experiment: FRAP-GUV pore-forming activity of BAX, 70-kDa F-dextran; assay type: biochemical, mouse; design: FRAP pore-forming activity / FRAP pore-forming activity, average / p (FRAP-70k-p), Average: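 unitless ratio D/D0 relative to diffusion coefficient after Triton X-100 disruption of GUVs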
Experimental: as §1, §2, §3, §4

B1: EEE (protein)
chain: MAHAGRTGYDNREIVMKYIHYKLSQRGYEWDAGDVGAAPPGAAPAPGIFSSQPGHTPHPAASRDPVAREEPLQTPAAPGAAAGPALEPVPPVVHLTLRQAGDDFSRRYRRDFAEMSSQLHLTPFTARGRFATVVEELFRDGVNWGRIVAFFEFGGVMCVESVNREMSPLVDNIALWMTEYLNRHLHTWIQDNGGWDAFVELYGPSMRPLFDFSWLSL
modifications: Pacific Blue (maleimide) on the native cysteine 158; left off: His6, C-terminal, state not stated
- FRAP pore-forming activity, average (BAX [1]; mean of trials): 0.001715
- FRAP pore-forming activity (BAX [1]; trial1): 0.003333
- FRAP pore-forming activity (BAX [1]; trial2): 0.0005263
- FRAP pore-forming activity (BAX [1]; trial3): 0.001579
- FRAP pore-forming activity (BAX [1]; trial4): 0.002807
- FRAP pore-forming activity (BAX [1]; trial5): 0.002982
- FRAP pore-forming activity (BAX [1]; trial6): 0.001754
- FRAP pore-forming activity (BAX [1]; trial7): 0.0005263
- FRAP pore-forming activity (BAX [1]; trial8): 0.002807
- FRAP pore-forming activity (BAX [1]; trial9): 0.0005263
- FRAP pore-forming activity (BAX [1]; trial10): 0.0005263
- FRAP pore-forming activity (BAX [1]; trial11): 0.0005263
- FRAP pore-forming activity (BAX [1]; trial12): 0.001053
- FRAP pore-forming activity (BAX [1]; trial13): 0.0005263
- FRAP pore-forming activity (BAX [1]; trial14): 0.002632
- FRAP pore-forming activity (BAX [1]; trial15): 0.001053
- FRAP pore-forming activity (BAX [1]; trial16): 0.002632
- FRAP pore-forming activity (BAX [1]; trial17): 0.001404
- FRAP pore-forming activity (BAX [1]; trial18): 0.003684
- pore-forming activity / effect on BAX-induced membrane pores on GUV (in words) (BAX [2]; 10- and 70-kDa F-dextran, BAX 1 µM, BimBH3 2 µM, BCL-2 1 µM, ABT-199 30 µM, room temperature, Fig. 2c): neither BAX nor EEE, in the absence of pro-apoptotic BimBH3, is able to induce large membrane pores on GUV; also recorded: the pore-forming ability of BAX is clearly inhibited by the presence of EEE
- FRAP pore-forming activity, average (BAX [2]; 70 kDa F-dextran, mean of trials): 0.0009376
- FRAP pore-forming activity (BAX [2]; 70 kDa F-dextran, trial1): 0.000495
- FRAP pore-forming activity (BAX [2]; 70 kDa F-dextran, trial2): 0.0006601
- FRAP pore-forming activity (BAX [2]; 70 kDa F-dextran, trial3): 0.000495
- FRAP pore-forming activity (BAX [2]; 70 kDa F-dextran, trial4): 0.0009901
- FRAP pore-forming activity (BAX [2]; 70 kDa F-dextran, trial5): 0.0008251
- FRAP pore-forming activity (BAX [2]; 70 kDa F-dextran, trial6): 0.000495
- FRAP pore-forming activity (BAX [2]; 70 kDa F-dextran, trial7): 0.0008251
- FRAP pore-forming activity (BAX [2]; 70 kDa F-dextran, trial8): 0.000495
- FRAP pore-forming activity (BAX [2]; 70 kDa F-dextran, trial9): 0.00132
- FRAP pore-forming activity (BAX [2]; 70 kDa F-dextran, trial10): 0.0008251
- FRAP pore-forming activity (BAX [2]; 70 kDa F-dextran, trial11): 0.0008251
- FRAP pore-forming activity (BAX [2]; 70 kDa F-dextran, trial12): 0.0008251
- FRAP pore-forming activity (BAX [2]; 70 kDa F-dextran, trial13): 0.001155
- FRAP pore-forming activity (BAX [2]; 70 kDa F-dextran, trial14): 0.0009901
- FRAP pore-forming activity (BAX [2]; 70 kDa F-dextran, trial15): 0.002475
- FRAP pore-forming activity (BAX [2]; 70 kDa F-dextran, trial16): 0.000495
- FRAP pore-forming activity (BAX [2]; 70 kDa F-dextran, trial17): 0.0006601
- FRAP pore-forming activity (BAX [2]; 70 kDa F-dextran, trial18): 0.000495
- FRAP pore-forming activity (BAX [2]; 70 kDa F-dextran, trial19): 0.002475
- FRAP pore-forming activity (BAX [2]; 70 kDa F-dextran, trial20): 0.0008251
- FRAP pore-forming activity (BAX [2]; 70 kDa F-dextran, trial21): 0.0006601
- FRAP pore-forming activity (BAX [2]; 70 kDa F-dextran, trial22): 0.00132
